Data from patent US20170107258A1 (CANCER RESEARCH TECHNOLOGY, published 2017).
[ ]: non-standard residue; d: D form. βSer = β-serine (lower case s in P1); βArg = β-arginine (lower case r); βLeu = β-leucine (lower case l)

T1: purified recombinant ADAM8
T1 sequence (Q05910 whole entry, species assumed, looked up): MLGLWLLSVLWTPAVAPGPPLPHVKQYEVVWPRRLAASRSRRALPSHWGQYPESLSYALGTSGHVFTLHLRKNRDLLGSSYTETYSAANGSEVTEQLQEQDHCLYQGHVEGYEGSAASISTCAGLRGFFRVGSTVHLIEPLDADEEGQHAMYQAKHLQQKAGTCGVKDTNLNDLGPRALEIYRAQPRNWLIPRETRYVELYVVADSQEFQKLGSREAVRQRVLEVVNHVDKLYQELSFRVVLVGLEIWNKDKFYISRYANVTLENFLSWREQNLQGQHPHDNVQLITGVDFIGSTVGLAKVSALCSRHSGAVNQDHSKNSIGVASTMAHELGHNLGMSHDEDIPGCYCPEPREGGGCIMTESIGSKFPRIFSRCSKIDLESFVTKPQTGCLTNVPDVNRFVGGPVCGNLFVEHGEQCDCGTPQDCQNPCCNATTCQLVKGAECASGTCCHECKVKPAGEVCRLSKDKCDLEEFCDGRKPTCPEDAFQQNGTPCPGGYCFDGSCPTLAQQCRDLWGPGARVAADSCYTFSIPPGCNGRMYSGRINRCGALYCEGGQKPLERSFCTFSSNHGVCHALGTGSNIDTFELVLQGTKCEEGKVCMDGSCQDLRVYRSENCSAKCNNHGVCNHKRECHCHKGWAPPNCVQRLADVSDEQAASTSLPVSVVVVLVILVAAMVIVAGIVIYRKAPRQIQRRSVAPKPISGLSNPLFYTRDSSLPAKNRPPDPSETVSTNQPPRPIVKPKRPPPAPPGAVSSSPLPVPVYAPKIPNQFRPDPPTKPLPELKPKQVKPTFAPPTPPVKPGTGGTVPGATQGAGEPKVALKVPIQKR


Legend:
Test in all cases: cell-based or functional assay
[1] = target: T1, purified recombinant ADAM8
[2] = target: T1, purified recombinant ADAM8; remark: listed apart in the source
[3] = target: T1, purified recombinant ADAM8; remark: listed apart in the source

| A8 Inhibition (IC50) [1] [nM] | ADAM inhibition with P1 (IC50; CD23 fluorogenic substrate) [2] [nM] | IC50 of inhibition of ADAM8 catalytic activity [3] [nM] | Binder |
| --- | --- | --- | --- |
| > 500 | – | – | cyclo([βArg]LSKDK) [cyclic peptide P2, c(rLSKDK)] |
| 100 | 100 | ~50 | cyclo(RL[βSer]KDK) [cyclic peptide P1, c(RLsKDK), cyclo(Arg-Leu-{β-Ser}-Lys-Asp-Lys)] |
| > 500 | – | – | cyclo(R[βLeu]SKDK) [cyclic peptide P3, c(RlSKDK)] |
